Assay results taken from the nanobody polyreactivity screen of Harvey et al. (2022).

Experiment: yeast display, Sf9 membrane polyspecificity reagent, FACS + sequencing; frameworks hold sequencing errors
Summary of the method: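 A nanobody's polyreactivity label depends on the gate it was sorted from. Yeast display cells were stained with 10% biotinylated, detergent-solubilized Sf9 membrane reagent for 1 hour at 4 °C, enriched on streptavidin microbeads and sorted by FACS. The low and high (top ~1%) gates were set on anti-HA fluorescence for expression and streptavidin fluorescence for reagent binding.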

Row | Sequence | polyreactivity (PSR sort gate)
1 | QVQLVESGGGLVQAGGSLRLSCAASGRTLYRNAMGWYRQSPWKDREFVSRITWSGASTYYADSVKGRFTISRDNAKNTVYLQMNSLKPEDTAVYYCAAQYLSRRYGPYYTYNYWGQGTQVTVSS | high polyreactivity
2 | QVQLVESGGGLVQAGGSLRLSCAASGRTLYYKAMGWYRQAPGKERELVAAISRSGGSTYYADSVKGRFTISRDNAKNTVYLQMNSLKPEDTAVYYCAVLPSYTSWESSDYWGQGTQVTVSS | high polyreactivity
3 | QVQLVESGGGLVQAGGSLRLSCAASGRTLYYNTMGWYRQAPGKERELVASIRWDGGSTNYADSVNGRFTISRDNAKNTVYLQMNSLKPEDTAVYYCNADPGWTELEYDYWGQGTQVTVSS | low polyreactivity
4 | QVQLVESGGGLVQAGGSLRLSCAASGRTMWAYSMGWYRPAHGKERELVAAITGSGGSTYYADSVKGRFTISRDNAKNTVYLQMNSLKPEDTAVYYCAAYSRTLHYDSWGQGTHVTVSS | high polyreactivity
5 | QVQLVESGGGLVQAGGSLRLSCAASGRTSASNAMGWYREAPGKERELVATIDGIDGNTYYADSVKGRFTISRDNAKNTVYLQMNSLKPEDTAVYYCNVESWRLQAIYKYSYWGQGTQVTVSS | low polyreactivity
6 | QVQLVESGGGLVQAGGSLRLSCAASGRTSAWYAMGWYRQAPGKERELVADISGSADSTYYADSVKGRFTISRDNAKNTVYLQMNSLKPEDTAVYYCATSISTPSGDPFDYWGQGTQVTVSS | low polyreactivity
7 | QVQLVESGGGLVQAGGSLRLSCAASGRTSDGYAMGWYRPAPGKERELVAGITEGGGDTYYADSVKGRFTISRDNAKNTVYLQMNSLKPEDTAVYYCNAVEGSRLPYDYWGQGTQVTVSS | low polyreactivity
8 | QVQLVESGGGLVQAGGSLRLSCAASGRTSDINTMGWYRQAPGKERELVAAISDSDGTTYYADSVKGRFTISRDNAKNTVYLQMNSLKPDDTAVYYCAAERATVKFGYWGQGTQVTVSS | low polyreactivity
9 | QVQLVESGGGLVQAGGSLRLSCAASGRTSFGYAMGWYRQAPGKERELVAVISIGGTTYYADSVKGRFTISRDNAKNTVYLQMNSLKPEDTAVYYCAATPSNATGFLSYDYWGQGTQVTVSS | low polyreactivity
10 | QVQLVESGGGLVQAGGSLRLSCAASGRTSGGNAMGWYRQAPGKERELVAAISLRGGGTYYADSVKGRFTISRDNAKNTVYLQMNSLIPEDTAVFYCAAEFTYYGARWGYLGDLDYWGQGTQVTVSS | high polyreactivity
11 | QVQLVESGGGLVQAGGSLRLSCAASGRTSKRYAMGWYRQAPGKERELVASIRGGDGSTYYADSVKGRFTISRDNAKNTVYLQMNSLKPEDTAVYYCARASSYGYYYWGQGTQVTVSS | high polyreactivity
12 | QVQLVESGGGLVQAGGSLRLSCAASGRTSLGYDMGWYRQAPGKERELVAAITRGGSTYYADSVKGRFTISRDNAKNTVYLQMNSLKPEDTAVYYCAARPWTSASYDYWGQGTQVTVSS | low polyreactivity
13 | QVQLVESGGGLVQAGGSLRLSCAASGRTSLNYAMGWYRQAPGKERELVAAITRGGGGTYYADSVKGRFTISRDNAKNTVYLQMNSLIPEDTAVYYCNRVFSLYGYGWQKYDYWGQGTQVTVSS | high polyreactivity
14 | QVQLVESGGGLVQAGGSLRLSCAASGRTSPRYAMGWYRQAPGKEREWVASISGSGGRTYYADSVKGRFTISRDNAKNTVYLQMNSLKPEDTAVYYCAASTQGNYYPYKRYDYCGQGTQVTVSS | high polyreactivity
15 | QVQLVESGGGLVQAGGSLRLSCAASGRTSREYAMGWYRQAPGKERELVAAISWNGGSTYYADSVKGRFTISRDNAMNTVYLQMNSLKPEDTAVYYCAARGKGYYRFGYWGQGTQVTVSS | high polyreactivity
16 | QVQLVESGGGLVQAGGSLRLSCAASGRTSSSNAMGWYRQAPGKERELVATISRTGSTYYADSVKGRFTISRDNAKNTVYLQMNSLKPEDTAVYYCNRYFSEALLHGSCYNRYYYWGQGTQVTVSS | low polyreactivity
17 | QVQLVESGGGLVQAGGSLRLSCAASGRTSVLYAMGWYRQAPGKEREFVAAITWNSGSTYYADSVKGRFTISRDNAKNTVYLQMNSLKPEDTAVYYCNADYYFSSYRSTYDYWGQGTQVTVSS | low polyreactivity
18 | QVQLVESGGGLVQAGGSLRLSCAASGRTVEQNAMGLYRQAPGKERELVASITSVGSTDYADSVKGRFTISRDNAKNTVYLQMNSLKPEDTAVYYCAKTLGSQNYDFDYWGKGTQVTVSS | low polyreactivity
19 | QVQLVESGGGLVQAGGSLRLSCAASGRTVGSYVMGWYRHAPVKERELVATISRRGGTTYYADSVKARFTISRDNAKNTVYLQMNSLKPEDTAVYYCNRVIPLASYGYGYWGQGTQVTVSS | high polyreactivity
20 | QVQLVESGGGLVQAGGSLRLSCAASGRTVPYAMGWYRQAPGKERELVATITYRVSTYYADSVKGRFTISRDNAKNTVYLQMNSLKPEDTEVYYCNTVTYPYVPALYDYWGQGTQVTVSS | high polyreactivity
21 | QVQLVESGGGLVQAGGSLRLSCAASGRTYAYYAMGWYRQAPGKERELVAAITRGTDTHYADSVKGRFTISRDNAKNTVYLQMNSLKPEDTAVYYCAADLSQDFDYWGQGTQVTVSS | low polyreactivity
22 | QVQLVESGGGLVQAGGSLRLSCAASGRTYGYNAMGWYRQAPGKERELVAAISRSGDSTYYADSVKGRFTISRDNAKNTVYLQMNSLKPEDTAVYYCATRYVTTGYDYWGQGTQVTVSS | low polyreactivity

Row | Sequence | polyreactivity (PSR sort gate)
23 | QVQLVESGGGLVQAGGSLRLSCAASGRTYKYYALGWYRQARGKERELVAAITSGASTNYADSVKGRFTISRDNAKNTVYLQMNSLKPEDTAVYYCAARKAYFFDRYGYWGLGTQVTVSS | high polyreactivity
24 | QVQLVESGGGLVQAGGSLRLSCAASGRTYPRYGMGWYRQAPGKERELVDTIRTGGRTNYADSVKGRFTISRDNAKNTVYLQMNSLKPEDTAVYYCATDSSKHPYSPTLLKFDYWGQGTQVTVSS | low polyreactivity
25 | QVQLVESGGGLVQAGGSLRLSCAASGRTYPYYAMGWYRQAPGKEREVVAAITYRGGSTSYADSVKGRFTISRDNAKNTVDLQMNSLKPEDTAVYYCAARTWNRRSPYDYWGQGTQVTVSS | high polyreactivity
26 | QVQLVESGGGLVQAGGSLRLSCAASGRTYTFNTMGLSRQAPGKEREWVAAIDGDGTTNYADSVKGRFTISRDNAKNTVYLQMNSLKPEDTAVYYCAADFLYSFWYEPTFDYWGQGTQVTVSS | low polyreactivity
27 | QVQLVESGGGLVQAGGSLRLSCAASGRTYVNTMGWYRQAPGKERELVAAISWSGGRTRYADSVKGRFTISRDNAKNTVYLQMNSLKPEDTAVYYCAKRTYSRKFRGAYNYWGQGTQVTVSS | high polyreactivity
28 | QVQLVESGGGLVQAGGSLRLSCAASGRTYVVYAMGWYRQAPGKERELVARFRWRDVSTYYADSVKGRFTISRDNAKNTVYLQMNSLKPEDSAVYYCAARSYTGGGRLYYWGQGTQVTVSS | high polyreactivity
29 | QVQLVESGGGLVQAGGSLRLSCAASGRTYYYNAMGWYREAPGKERELVARISQRTGSTYYADSVKGRFTISRDNAKNTVYLQMNSLKPEDTAVYYCAASSQTRQWTNDYWGQGTQVTVSS | high polyreactivity
30 | QVQLVESGGGLVQAGGSLRLSCAASGSICAYYAMGGYRQAPGTERELVAAISQSGGSTYYADSVKGRVTISRDNAKNTVYLQMNSLKPEDTADYYCAARFRYGYSGYRYDYWGQGTQVNVSS | high polyreactivity
31 | QVQLVESGGGLVQAGGSLRLSCAASGSICVDNAMGWYRQAPGKERELVAVITLRSGSTNYADSVKGRFTISRDNAKNTVYLQMNSLKPEDTAVYYCAADDTYHDYQRDTDDDYWGQGTQVTVSS | low polyreactivity
32 | QVQLVESGGGLVQAGGSLRLSCAASGSICYSYAMGWYRQAPWKEREFVATISDSSGSTYYADSVKGRFTISRDYATNTVYLQMNSLKPEDSAVYYCATTDSYGYYGYGYWGQGTQVTVSS | low polyreactivity
33 | QVQLVESGGGLVQAGGSLRLSCAASGSIERNAMGWYRQAPGKERELVAAISRSGTRTYYADSVKGRFTISRDNAKNTVYLQMNSLKPEDTAVYYCAKASAQWVQFDYWGQGTQVTVSS | high polyreactivity
34 | QVQLVESGGGLVQAGGSLRLSCAASGSIFAAYAMGWYRQAPGKERELVAVINSRGGITSYADSVKGRFTISRDNAKNTVYLQMNSLKPEDTAVYYCAARPWYSWRYDYWGQGTQVTVSS | high polyreactivity
35 | QVQLVESGGGLVQAGGSLRLSCAASGSIFAAYTMGWYRQAPGKERELVAAISVSTVSTNYADSVQGRFTISRDNAKNTVFLQMNRLKPEDTAVYYCNADATDSYPEKDEHDSWGQGTEVTVSS | low polyreactivity
36 | QVQLVESGGGLVQAGGSLRLSCAASGSIFAAYTMGWYRQAPGKQRELVAAISSGTRTNYADSVKGRFTISRDNAKNTVYLQLNSLKPEDTAVYYWNADVSALWWPEEWYNASEFDYWGQGTQVTVSS | low polyreactivity
37 | QVQLVESGGGLVQAGGSLRLSCAASGSIFADNAMGWDRQAPGKERELVAAISRTGGSTYYADSVKGRFTISRDNSKNTVYLQMNSLKPEDTAVYYCAADNGYGRYRRYYYWGQGTQVTVSS | high polyreactivity
38 | QVQLVESGGGLVQAGGSLRLSCAASGSIFADNGMGWYRQAPGKERELVAAINSGSTYADSVKGRFTISRDNAKNTVYLQMNSLKPEDTAVYYCNADGVTSGRVDYWGQGTQVTVSS | low polyreactivity
39 | QVQLVESGGGLVQAGGSLRLSCAASGSIFADYAMGWYRQAPGKERELVAAITASGGTTYYADSVKGRFTISRDNAKNTVYVQMNSLKPEDTAVYYCNAGNRTFLYDRDDYWGQGTQVSVSS | high polyreactivity
40 | QVQLVESGGGLVQAGGSLRLSCAASGSIFADYTMGWYRQAPGKERELVAAISSDDSTYYADSVKGRFTISRDNAKNTVYLQMNSLKPEDTAVYYCNDDGSIGPEEYWGQGTQVTVSS | low polyreactivity
41 | QVQLVESGGGLVQAGGSLRLSCAASGSIFAFNGMGGYRPAPGKERELVAGITISDSTNYADSVKGRFTISRDNAKNTVSLQMNSLKPEVTAVYYCNADYEQYVYWYWFIKYDYWGQVTQVTVSS | low polyreactivity
42 | QVQLVESGGGLVQAGGSLRLSCAASGSIFAFNVMGWYRQAPGKERELVAAITWGGRTYYADSVKGRFTISRDNAKNTVYLQMNSLKPEDTAVYYCAAYPLYRVSHGYEYNYWGQGTQVTVSS | high polyreactivity
43 | QVQLVESGGGLVQAGGSLRLSCAASGSIFAGYAMGWYRQAPGKERELVAAISSSGGRTYYADSVKGRFTISRDNAKNTVYLQMNSLKPVDTAVYYCAVSTYEEEYWGQGTQVTVSS | high polyreactivity
